Experiment [1] addresses Puumala virus (PUUV) glycoprotein C ectodomain, soluble GC (residues 659-1106 of GPC) (Puumala virus P360 strain). Put plainly: crystal structure.
Experiment [2] has as its target Andes virus (ANDV) glycoprotein C, wild type, from virus-like particles (Andes virus strain Chi-7913). Put plainly: sucrose gradient sedimentation.

The text below walks through data of article PMC5081248.

What is called stoichiometry N is the number of molecules, sites or subunits per partner or assembly. With “Puumala virus (PUUV) glycoprotein C ectodomain, soluble GC (residues 659-1106 of GPC) (domain or fragment)”, in experiment [1], the stoichiometry N is 3.

For “Andes virus (ANDV) glycoprotein C, wild type, from virus-like particles (natural protein)”, the stoichiometry N in experiment [2] worked out at 3.
